The values that follow are results of earlier work, collected in article PMC4028615.

By Kd is commonly meant the free concentration of one partner at which half of the binding sites on the other are occupied at equilibrium, for simple one-to-one binding.

In the data set the target is integrin (LFA-1) (Homo sapiens) (UniProt P20701).
Sequence of integrin (LFA-1) (Homo sapiens) (P20701 26-1090, chain 1 of 2): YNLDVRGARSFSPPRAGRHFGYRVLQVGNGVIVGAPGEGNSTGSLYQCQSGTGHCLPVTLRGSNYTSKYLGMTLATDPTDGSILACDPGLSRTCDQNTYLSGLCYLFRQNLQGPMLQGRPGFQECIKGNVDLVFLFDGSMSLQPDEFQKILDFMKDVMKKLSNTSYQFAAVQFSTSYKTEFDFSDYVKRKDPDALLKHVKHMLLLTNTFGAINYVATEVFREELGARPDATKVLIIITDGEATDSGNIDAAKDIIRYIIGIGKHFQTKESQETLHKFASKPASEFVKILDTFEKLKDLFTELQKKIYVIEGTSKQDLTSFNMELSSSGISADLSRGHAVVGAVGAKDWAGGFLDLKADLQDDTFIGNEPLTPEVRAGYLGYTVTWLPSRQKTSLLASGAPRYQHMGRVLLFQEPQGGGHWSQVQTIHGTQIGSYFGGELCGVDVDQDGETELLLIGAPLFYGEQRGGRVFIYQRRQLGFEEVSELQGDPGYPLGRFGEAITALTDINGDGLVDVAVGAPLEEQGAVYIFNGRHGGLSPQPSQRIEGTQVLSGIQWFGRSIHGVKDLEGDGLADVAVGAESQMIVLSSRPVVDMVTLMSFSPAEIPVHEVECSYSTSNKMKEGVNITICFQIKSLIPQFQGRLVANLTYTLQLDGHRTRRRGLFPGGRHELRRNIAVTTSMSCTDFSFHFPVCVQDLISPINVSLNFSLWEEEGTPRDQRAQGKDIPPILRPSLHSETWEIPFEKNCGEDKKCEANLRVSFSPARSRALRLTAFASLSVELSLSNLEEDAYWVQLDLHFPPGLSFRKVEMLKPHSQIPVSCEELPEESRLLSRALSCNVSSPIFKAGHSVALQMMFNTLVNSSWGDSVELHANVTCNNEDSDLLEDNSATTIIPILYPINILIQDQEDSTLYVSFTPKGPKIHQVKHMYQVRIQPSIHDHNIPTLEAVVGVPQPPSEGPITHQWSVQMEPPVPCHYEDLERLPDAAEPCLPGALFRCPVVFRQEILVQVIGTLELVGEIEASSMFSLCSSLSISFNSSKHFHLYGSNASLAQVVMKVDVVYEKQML
Sequence of integrin (LFA-1) (Homo sapiens) (P05107 23-700, chain 2 of 2, further chain): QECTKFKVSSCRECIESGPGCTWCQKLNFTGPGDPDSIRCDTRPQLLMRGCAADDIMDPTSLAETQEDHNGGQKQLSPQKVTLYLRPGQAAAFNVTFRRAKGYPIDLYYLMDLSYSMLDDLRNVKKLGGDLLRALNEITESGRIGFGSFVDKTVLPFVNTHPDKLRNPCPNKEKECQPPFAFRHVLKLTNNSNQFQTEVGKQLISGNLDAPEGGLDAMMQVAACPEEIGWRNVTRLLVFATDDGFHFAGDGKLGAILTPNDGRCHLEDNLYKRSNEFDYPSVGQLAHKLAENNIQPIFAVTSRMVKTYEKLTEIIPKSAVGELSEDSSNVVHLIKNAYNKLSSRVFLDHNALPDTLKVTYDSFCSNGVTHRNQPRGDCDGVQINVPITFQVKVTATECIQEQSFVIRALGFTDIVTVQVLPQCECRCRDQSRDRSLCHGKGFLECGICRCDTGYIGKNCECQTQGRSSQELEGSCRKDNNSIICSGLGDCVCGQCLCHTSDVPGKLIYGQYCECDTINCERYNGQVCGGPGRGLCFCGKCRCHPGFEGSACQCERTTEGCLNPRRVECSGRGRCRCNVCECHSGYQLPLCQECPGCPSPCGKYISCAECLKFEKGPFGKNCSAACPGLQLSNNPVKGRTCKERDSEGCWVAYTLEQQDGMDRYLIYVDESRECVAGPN

Sequence of ICAM-1 (P05362 28-480): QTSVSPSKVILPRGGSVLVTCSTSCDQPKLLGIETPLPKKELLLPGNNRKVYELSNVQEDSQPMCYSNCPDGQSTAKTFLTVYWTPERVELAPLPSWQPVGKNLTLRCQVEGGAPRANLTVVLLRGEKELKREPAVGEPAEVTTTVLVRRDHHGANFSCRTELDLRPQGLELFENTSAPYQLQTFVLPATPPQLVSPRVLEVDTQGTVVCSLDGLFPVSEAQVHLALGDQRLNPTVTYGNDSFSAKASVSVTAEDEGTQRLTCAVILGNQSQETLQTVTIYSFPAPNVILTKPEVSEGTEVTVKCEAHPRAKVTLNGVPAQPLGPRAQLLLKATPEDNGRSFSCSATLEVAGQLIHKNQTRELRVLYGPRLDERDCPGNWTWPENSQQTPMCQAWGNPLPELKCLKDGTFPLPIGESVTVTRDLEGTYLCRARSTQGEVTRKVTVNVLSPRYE

Consider ICAM-1 (from UniProt P05362), for which the Kd is 0.1 µM.
